Biological target: Gab2a 12mer peptide (Homo sapiens, UniProt Q9UQC2)
Assay: SPR

Sequence of Gab2a 12mer peptide (Q9UQC2 whole entry): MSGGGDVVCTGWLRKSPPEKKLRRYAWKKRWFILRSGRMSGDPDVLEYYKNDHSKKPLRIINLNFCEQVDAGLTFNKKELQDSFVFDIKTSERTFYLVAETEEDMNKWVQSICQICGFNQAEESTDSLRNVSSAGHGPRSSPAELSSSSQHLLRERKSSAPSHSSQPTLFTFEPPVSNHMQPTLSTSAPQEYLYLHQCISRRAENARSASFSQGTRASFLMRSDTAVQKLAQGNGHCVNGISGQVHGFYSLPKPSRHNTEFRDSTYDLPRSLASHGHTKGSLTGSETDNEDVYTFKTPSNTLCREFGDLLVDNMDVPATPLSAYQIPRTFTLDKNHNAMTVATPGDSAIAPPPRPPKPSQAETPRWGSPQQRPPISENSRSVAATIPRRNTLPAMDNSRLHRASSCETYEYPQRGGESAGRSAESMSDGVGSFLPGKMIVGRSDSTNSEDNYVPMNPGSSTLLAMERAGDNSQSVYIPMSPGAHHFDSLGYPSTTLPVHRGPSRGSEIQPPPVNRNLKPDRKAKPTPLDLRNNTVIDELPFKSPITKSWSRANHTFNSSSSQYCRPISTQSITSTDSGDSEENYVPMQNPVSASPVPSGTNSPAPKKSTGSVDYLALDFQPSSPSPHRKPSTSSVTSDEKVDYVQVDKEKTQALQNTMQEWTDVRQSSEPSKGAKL

Kd: 161 µM
B1: Grb2 SH3C (protein)
chain: QQPTYVQALFDFDPQEDGELGFRRGDFIHVMDNSDPNWWKGACHGQTGMFPRNYVTPVNR

Reference: PMC12278339 (2025)
